Reference: article PMC3537886 (Nature structural & molecular biology, 2012)
Blank lines part the entries; values can stand above or below the molecule they belong to.

Columns and labels:
[1] = target: biotinylated soluble leucine-zippered HLA-DO with αP10aA (bio-szDOv), beta chain with C-terminal Avitag (human) (UniProt P06340); assay: BLI
[2] = target: soluble HLA-DM (sDM), wild type (human, UniProt P28067;P28068); assay: enzyme inhibition kinetics

binding affinity relative to the wild type (fold of the wild-type affinity) [1]: 0.0025
Molecule: sDM mutant αR98E,R194E (from UniProt P28067;P28068) (complex)

Ki [2]: 290 ± 20 nM
B1: soluble HLA-DO Ig-fusion protein (sDO-Fc) (Fc fusion)
chain 1: TKADHMGSYGPAFYQSYGASGQFTHEFDEEQLFSVDLKKSEAVWRLPEFGDFARFDPQGGLAGIAAIKAHLDILVERSNRSRAINVPPRVTVLPKSRVELGQPNILICIVDNIFPPVINITWLRNGQTVTEGVAQTSFYSQPDHLFRKFHYLPFVPSAEDVYDCQVEHWGLDAPLLRHWELQVPIPPPDAME
chain 2: TDSPEDFVIQAKADCYFTNGTEKVQFVVRFIFNLEEYVRFDSDVGMFVALTKLGQPDAEQWNSRLDLLERSRQAVDGVCRHNYRLGAPFTVGRKVQPEVTVYPERTPLLHQHNLLHCSVTGFYPGDIKIKWFLNGQEERAGVMSTGPIRNGDWTFQTVVMLEMTPELGHVYTCLVDHSSLLSPVSVEWRAQSEYSWRK
